Kd data for 29 molecules are collected here from patent publication US20230203177A1 (Bristol-Myers Squibb, published 2023).

Sequences and labels used below:
B1: M21 (HC-K12E,K13Q,K23E / LC-K45Q) (antibody, human IgG1, kappa)
heavy: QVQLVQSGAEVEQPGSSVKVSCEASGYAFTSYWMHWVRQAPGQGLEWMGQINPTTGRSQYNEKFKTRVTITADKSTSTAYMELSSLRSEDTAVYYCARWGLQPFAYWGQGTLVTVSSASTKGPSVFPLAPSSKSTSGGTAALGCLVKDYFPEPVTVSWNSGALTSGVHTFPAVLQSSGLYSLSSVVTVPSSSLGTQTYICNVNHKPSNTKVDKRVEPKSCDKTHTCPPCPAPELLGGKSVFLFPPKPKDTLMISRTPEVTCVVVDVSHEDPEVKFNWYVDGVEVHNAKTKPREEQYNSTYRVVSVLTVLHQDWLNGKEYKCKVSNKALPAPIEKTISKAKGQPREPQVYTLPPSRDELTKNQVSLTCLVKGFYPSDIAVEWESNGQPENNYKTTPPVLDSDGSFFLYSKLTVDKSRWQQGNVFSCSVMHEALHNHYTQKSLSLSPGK
light: DIQMTQSPSFLSASVGDRVTITCKASQDVSTAVAWYQQKPGKAPQLLIYSASYRYTGVPSRFSGSGSGTDFTLTISSLQPEDFATYYCQQHYSTPWTFGGGTKVEIKRTVAAPSVFIFPPSDEQLKSGTASVVCLLNNFYPREAKVQWKVDNALQSGNSQESVTEQDSKDSTYSLSSTLTLSKADYEKHKVYACEVTHQGLSSPVTKSFNRGEC
notes: IgG1-P238K; also called HC5/LC2
B2: M51 (HC-K12Q,K13Q,K23Q / LC-K45Q,R54Q,R61Q) (antibody, human IgG1, kappa, V domains shown)
VH: QVQLVQSGAEVQQPGSSVKVSCQASGYAFTSYWMHWVRQAPGQGLEWMGQINPTTGRSQYNEKFKTRVTITADKSTSTAYMELSSLRSEDTAVYYCARWGLQPFAYWGQGTLVTVSS
VL: DIQMTQSPSFLSASVGDRVTITCKASQDVSTAVAWYQQKPGKAPQLLIYSASYQYTGVPSQFSGSGSGTDFTLTISSLQPEDFATYYCQQHYSTPWTFGGGTKVEIKR
notes: IgG1-P238K; also called HC3/LC4
B3: M29 (HC-E46K,E62K / LC-K45Q) (antibody, human IgG1, kappa, V domains shown)
VH: B2 VH with Q12K, Q13K, Q23K, E46K, E62K
VL: B2 VL with Q54R, Q61R
notes: IgG1-P238K; also called HC13/LC2
B4: M32 (HC-K63Q / LC-K45Q) (antibody, human IgG1, kappa, V domains shown)
VH: B2 VH with Q12K, Q13K, Q23K, K63Q
VL: B2 VL with Q54R, Q61R
notes: IgG1-P238K; also called HC16/LC2
B5: M22 (HC-K12V,K19S,K23A / LC-K45Q) (antibody, human IgG1, kappa, V domains shown)
VH: B2 VH with Q12V, Q13K, K19S, Q23A
VL: B2 VL with Q54R, Q61R
notes: IgG1-P238K; also called HC6/LC2
B6: M24 (HC-R38Q,K63Q,R67Q / LC-K45Q) (antibody, human IgG1, kappa, V domains shown)
VH: B2 VH with Q12K, Q13K, Q23K, R38Q, K63Q, R67Q
VL: B2 VL with Q54R, Q61R
notes: IgG1-P238K; also called HC8/LC2
B7: M56 (HC-R38Q,K63Q,R67Q / LC-K45Q,R54Q,R61Q) (antibody, human IgG1, kappa, V domains shown)
VH: B2 VH with Q12K, Q13K, Q23K, R38Q, K63Q, R67Q
VL: B2 VL
notes: IgG1-P238K; also called HC8/LC4
B8: M43 (HC-R57E / LC-K45E) (antibody, human IgG1, kappa, V domains shown)
VH: B2 VH with Q12K, Q13K, Q23K, R57E
VL: B2 VL with Q45E, Q54R, Q61R
notes: IgG1-P238K; also called HC11/LC3
B9: M25 (HC-K63Q,R67E / LC-K45Q) (antibody, human IgG1, kappa, V domains shown)
VH: B2 VH with Q12K, Q13K, Q23K, K63Q, R67E
VL: B2 VL with Q54R, Q61R
notes: IgG1-P238K; also called HC9/LC2
B10: M42 (HC-R67E / LC-K45E) (antibody, human IgG1, kappa, V domains shown)
VH: B2 VH with Q12K, Q13K, Q23K, R67E
VL: B2 VL with Q45E, Q54R, Q61R
notes: IgG1-P238K; also called HC10/LC3
B11: M55 (HC-K23E / LC-K45Q,R54Q,R61Q) (antibody, human IgG1, kappa)
heavy: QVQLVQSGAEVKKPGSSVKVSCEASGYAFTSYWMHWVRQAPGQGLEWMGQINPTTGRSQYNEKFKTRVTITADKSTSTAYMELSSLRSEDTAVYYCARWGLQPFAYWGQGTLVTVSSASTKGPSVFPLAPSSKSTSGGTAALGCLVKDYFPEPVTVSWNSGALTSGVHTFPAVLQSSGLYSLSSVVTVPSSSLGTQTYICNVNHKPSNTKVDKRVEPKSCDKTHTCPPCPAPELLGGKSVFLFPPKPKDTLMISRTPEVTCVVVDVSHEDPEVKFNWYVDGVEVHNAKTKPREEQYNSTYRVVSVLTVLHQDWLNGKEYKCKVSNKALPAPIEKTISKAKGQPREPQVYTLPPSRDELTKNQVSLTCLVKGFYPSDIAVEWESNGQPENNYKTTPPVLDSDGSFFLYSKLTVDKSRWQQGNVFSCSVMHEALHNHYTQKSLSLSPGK
light: B1 light with R54Q, R61Q
notes: IgG1-P238K; also called HC7/LC4
B12: M23 (HC-K23E / LC-K45Q) (antibody, human IgG1, kappa)
heavy: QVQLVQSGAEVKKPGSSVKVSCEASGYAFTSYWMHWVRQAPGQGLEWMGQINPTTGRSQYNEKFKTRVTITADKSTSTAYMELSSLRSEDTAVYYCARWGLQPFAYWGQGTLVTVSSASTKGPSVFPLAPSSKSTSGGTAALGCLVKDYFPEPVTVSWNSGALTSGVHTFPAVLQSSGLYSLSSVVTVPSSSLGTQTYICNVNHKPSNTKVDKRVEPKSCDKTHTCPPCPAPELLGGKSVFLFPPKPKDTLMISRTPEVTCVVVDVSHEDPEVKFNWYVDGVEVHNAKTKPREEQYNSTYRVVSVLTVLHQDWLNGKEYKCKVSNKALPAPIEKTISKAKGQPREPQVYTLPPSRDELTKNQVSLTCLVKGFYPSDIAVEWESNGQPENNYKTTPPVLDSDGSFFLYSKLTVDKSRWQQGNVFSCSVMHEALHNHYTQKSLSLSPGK
light: B1 light
notes: IgG1-P238K; also called HC7/LC2
B13: M27 (HC-R57E / LC-K45Q) (antibody, human IgG1, kappa, V domains shown)
VH: B2 VH with Q12K, Q13K, Q23K, R57E
VL: B2 VL with Q54R, Q61R
notes: IgG1-P238K; also called HC11/LC2
B14: M48 (HC-K63Q / LC-K45E) (antibody, human IgG1, kappa, V domains shown)
VH: B2 VH with Q12K, Q13K, Q23K, K63Q
VL: B2 VL with Q45E, Q54R, Q61R
notes: IgG1-P238K; also called HC16/LC3
B15: M40 (HC-R38Q,K63Q,R67Q / LC-K45E) (antibody, human IgG1, kappa, V domains shown)
VH: B2 VH with Q12K, Q13K, Q23K, R38Q, K63Q, R67Q
VL: B2 VL with Q45E, Q54R, Q61R
notes: IgG1-P238K; also called HC8/LC3
B16: M28 (HC-R57E,K74Q / LC-K45Q) (antibody, human IgG1, kappa, V domains shown)
VH: B2 VH with Q12K, Q13K, Q23K, R57E, K74Q
VL: B2 VL with Q54R, Q61R
notes: IgG1-P238K; also called HC12/LC2
B17: M30 (HC-K74T / LC-K45Q) (antibody, human IgG1, kappa, V domains shown)
VH: B2 VH with Q12K, Q13K, Q23K, K74T
VL: B2 VL with Q54R, Q61R
notes: IgG1-P238K; also called HC14/LC2
B18: M31 (HC-R67Q / LC-K45Q) (antibody, human IgG1, kappa, V domains shown)
VH: B2 VH with Q12K, Q13K, Q23K, R67Q
VL: B2 VL with Q54R, Q61R
notes: IgG1-P238K; also called HC15/LC2
B19: M35 (HC-K12Q,K13Q,K23Q / LC-K45E) (antibody, human IgG1, kappa, V domains shown)
VH: B2 VH
VL: B2 VL with Q45E, Q54R, Q61R
notes: IgG1-P238K; also called HC3/LC3
B20: M44 (HC-R57E,K74Q / LC-K45E) (antibody, human IgG1, kappa, V domains shown)
VH: B2 VH with Q12K, Q13K, Q23K, R57E, K74Q
VL: B2 VL with Q45E, Q54R, Q61R
notes: IgG1-P238K; also called HC12/LC3
B21: M39 (HC-K23E / LC-K45E) (antibody, human IgG1, kappa)
heavy: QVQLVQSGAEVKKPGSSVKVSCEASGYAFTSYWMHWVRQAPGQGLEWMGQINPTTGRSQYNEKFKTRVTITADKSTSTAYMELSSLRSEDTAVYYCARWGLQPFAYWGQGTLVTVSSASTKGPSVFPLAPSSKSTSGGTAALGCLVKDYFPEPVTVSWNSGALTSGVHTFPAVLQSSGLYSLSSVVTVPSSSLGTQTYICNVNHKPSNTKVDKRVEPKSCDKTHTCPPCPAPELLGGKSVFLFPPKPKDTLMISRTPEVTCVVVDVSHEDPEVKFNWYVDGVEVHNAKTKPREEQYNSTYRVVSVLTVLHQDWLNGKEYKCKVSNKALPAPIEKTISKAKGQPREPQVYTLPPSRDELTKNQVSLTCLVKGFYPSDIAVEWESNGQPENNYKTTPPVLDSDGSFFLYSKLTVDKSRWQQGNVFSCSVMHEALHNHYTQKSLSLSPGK
light: B1 light with Q45E
notes: IgG1-P238K; also called HC7/LC3
B22: M41 (HC-K63Q,R67E / LC-K45E) (antibody, human IgG1, kappa, V domains shown)
VH: B2 VH with Q12K, Q13K, Q23K, K63Q, R67E
VL: B2 VL with Q45E, Q54R, Q61R
notes: IgG1-P238K; also called HC9/LC3
B23: M46 (HC-K74T / LC-K45E) (antibody, human IgG1, kappa, V domains shown)
VH: B2 VH with Q12K, Q13K, Q23K, K74T
VL: B2 VL with Q45E, Q54R, Q61R
notes: IgG1-P238K; also called HC14/LC3
B24: M50 (HC-K12Q,K13Q / LC-K45Q,R54Q,R61Q) (antibody, human IgG1, kappa)
heavy: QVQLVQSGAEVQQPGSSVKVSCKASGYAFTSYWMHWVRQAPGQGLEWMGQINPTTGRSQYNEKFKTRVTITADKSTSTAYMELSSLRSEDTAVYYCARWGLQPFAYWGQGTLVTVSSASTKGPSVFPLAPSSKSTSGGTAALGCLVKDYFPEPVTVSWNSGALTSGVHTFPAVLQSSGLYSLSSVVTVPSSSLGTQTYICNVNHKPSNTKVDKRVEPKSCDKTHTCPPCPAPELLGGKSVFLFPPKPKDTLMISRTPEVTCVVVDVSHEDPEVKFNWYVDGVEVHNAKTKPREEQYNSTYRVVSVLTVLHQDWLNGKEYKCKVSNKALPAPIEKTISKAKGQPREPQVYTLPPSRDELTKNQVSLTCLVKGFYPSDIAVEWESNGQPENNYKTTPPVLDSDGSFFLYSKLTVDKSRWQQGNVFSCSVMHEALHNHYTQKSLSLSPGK
light: B1 light with R54Q, R61Q
notes: IgG1-P238K; also called HC2/LC4
B25: M26 (HC-R67E / LC-K45Q) (antibody, human IgG1, kappa, V domains shown)
VH: B2 VH with Q12K, Q13K, Q23K, R67E
VL: B2 VL with Q54R, Q61R
notes: IgG1-P238K; also called HC10/LC2
B26: M45 (HC-E46K,E62K / LC-K45E) (antibody, human IgG1, kappa, V domains shown)
VH: B2 VH with Q12K, Q13K, Q23K, E46K, E62K
VL: B2 VL with Q45E, Q54R, Q61R
notes: IgG1-P238K; also called HC13/LC3
B27: M57 (HC-K63Q,R67E / LC-K45Q,R54Q,R61Q) (antibody, human IgG1, kappa, V domains shown)
VH: B2 VH with Q12K, Q13K, Q23K, K63Q, R67E
VL: B2 VL
notes: IgG1-P238K; also called HC9/LC4
B28: M34 (HC-K12Q,K13Q / LC-K45E) (antibody, human IgG1, kappa)
heavy: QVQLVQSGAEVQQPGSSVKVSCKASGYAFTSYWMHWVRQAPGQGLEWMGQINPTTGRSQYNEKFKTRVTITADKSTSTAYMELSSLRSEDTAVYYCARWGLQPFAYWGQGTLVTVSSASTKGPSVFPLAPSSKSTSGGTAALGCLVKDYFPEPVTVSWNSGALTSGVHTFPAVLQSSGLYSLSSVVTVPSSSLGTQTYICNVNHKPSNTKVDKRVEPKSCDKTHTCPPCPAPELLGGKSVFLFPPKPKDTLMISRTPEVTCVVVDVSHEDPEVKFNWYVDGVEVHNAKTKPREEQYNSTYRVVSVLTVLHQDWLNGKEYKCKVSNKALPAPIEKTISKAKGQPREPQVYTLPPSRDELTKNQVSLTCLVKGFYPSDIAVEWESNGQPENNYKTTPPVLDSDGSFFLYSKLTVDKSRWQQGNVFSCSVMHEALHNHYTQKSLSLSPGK
light: B1 light with Q45E
notes: IgG1-P238K; also called HC2/LC3
B29: M52 (HC-K12E / LC-K45Q,R54Q,R61Q) (antibody, human IgG1, kappa)
heavy: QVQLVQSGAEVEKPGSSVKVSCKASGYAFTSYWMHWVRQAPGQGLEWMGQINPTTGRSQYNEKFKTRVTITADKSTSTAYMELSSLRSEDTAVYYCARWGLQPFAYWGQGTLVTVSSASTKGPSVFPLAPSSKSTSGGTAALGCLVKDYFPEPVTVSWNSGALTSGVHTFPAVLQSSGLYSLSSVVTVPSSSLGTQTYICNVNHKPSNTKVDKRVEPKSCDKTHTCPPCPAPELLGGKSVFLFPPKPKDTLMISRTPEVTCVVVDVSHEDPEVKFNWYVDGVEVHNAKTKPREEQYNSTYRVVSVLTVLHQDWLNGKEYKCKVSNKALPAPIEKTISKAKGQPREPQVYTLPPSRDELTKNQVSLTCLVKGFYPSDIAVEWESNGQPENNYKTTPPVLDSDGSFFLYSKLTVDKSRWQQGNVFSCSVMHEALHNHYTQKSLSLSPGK
light: B1 light with R54Q, R61Q
notes: IgG1-P238K; also called HC4/LC4

The Kd is the equilibrium constant for the complex coming apart. Low values mean higher affinity, high ones lower affinity.

Changes are numbered by the printed parent chain. Names and notes keep the numbering of the source.

The target of the assay is T1, soluble human CD40 extracellular domain (human, UniProt P25942 21-193).
T1 construct: Produced in house; also called hCD40; soluble hCD40 extracellular domain
T1 sequence (P25942 21-193 limits assumed): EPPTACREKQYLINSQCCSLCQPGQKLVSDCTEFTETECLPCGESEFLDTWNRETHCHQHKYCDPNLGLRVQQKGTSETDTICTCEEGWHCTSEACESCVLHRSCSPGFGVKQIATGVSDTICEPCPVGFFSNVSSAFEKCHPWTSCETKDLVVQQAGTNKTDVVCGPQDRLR
Put plainly: SPR, Ab captured from supernatant on protein A, hCD40 ECD analyte. As for the experimental part:
The titer data (Table 21) were used to normalize the antibody concentration in each supernatant to 3 μg/ml, and these antibodies were captured out of the supernatants on a protein A CMS Series S sensor chip (GE Healthcare), and tested for binding to two concentrations (5 nM and 50 nM) of soluble hCD40 extracellular domain.
CD40 binding SPR of antibody supernatants: Surface plasmon resonance (SPR) studies were conducted on a BIAcore™ T200 instrument (GE Healthcare, Chicago Ill.). A Series S Protein A sensor chip (GE Healthcare, Chicago Ill.) was equilibrated with SPR running buffer of 10 mM NaPO₄, 130 mM NaCl, 0.05% tween 20, (PBS-T) pH 7.2 at 25° C. The 96 antibody supernatants were normalized to a concentration of 3 μg/ml by diluting with PBS-T using a PerkinElmer JANUS® G3 system (PerkinElmer, Akron, Ohio). After priming the system, the 3 μg/ml antibody samples were captured on the protein A surface for 30 s at 10 μl/min Binding of 50 nM and 500 nM human CD40 extracellular domain (produced in house) was evaluated using association time of 180 s at 30 μl/min, followed by a dissociation time of 180 s at 30 μl/min Regeneration between cycles was accomplished using two 15 s injections of 10 mM glycine pH 1.5. […] Data were analyzed using BIAcore™ T200 evaluation software by fitting to a 1:1 Langmuir model.
A general note: SPR reads the build-up and loss of mass on a sensor chip optically.
On to B1, for which the Kd was 3.7 nM.
In the case of B2 it was 2.9 nM; in that of B3, 8.8 nM.
B4 yielded a Kd of 3.9 nM.
With B5, binding was put at a Kd of 3.5 nM. The Kd values of the last two molecules are within 1.5-fold of each other.
In the case of B6 it was 2.9 nM; in that of B7, 2.5 nM; in that of B8, 11.7 nM.
B9 gave a Kd of 3.1 nM.
In the case of B10 it was 3 nM; in that of B11, 3.5 nM.
B12 yielded a Kd of 4.1 nM.
In the case of B13 it was 10.4 nM; in that of B14, 3.8 nM; in that of B15, 3.1 nM.
In the case of B16 it was 15.7 nM.
Regarding B17, the Kd was found to be 4 nM. Compared with the last molecule, the Kd is about 3.9-fold lower.
In the case of B18 it was 3.1 nM.
For the molecule B19, the Kd was determined as 3.7 nM.
The molecule B20 registered a Kd of 17.2 nM.
In the case of B21 it was 4.6 nM; in that of B22, 3.3 nM.
In the case of B23 it was 3.9 nM; in that of B24, 2.5 nM; in that of B25, 3 nM.
In the case of B26 it was 8.8 nM; in that of B27, 2.5 nM; in that of B28, 3.3 nM.
With B29, binding was put at a Kd of 2.6 nM.
